The supplement of paper PMC9732359
± gives the uncertainty stated by the source.

Assay: protein stability index of a GFP-peptide fusion (yeast GPS) (PSI 1-4); higher = more stable; sorted into four equal gates, so the index is relative within each strain
In short: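 Tiled 17-residue yeast protein peptides were fused downstream of GFP in a plasmid that also expresses Cherry, and the pooled library was carried in yeast. Mid-log cultures in leucine-free medium were sorted into four equal gates by GFP/Cherry fluorescence ratio, and plasmids from each gate were PCR-amplified and Illumina-sequenced, with reads assigned to strains by barcodes. The protein stability index for each peptide was each gate's read frequency times its gate number, summed.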

Sequence | protein stability index (doa10∆) | protein stability index (pdr5∆) | protein stability index (san1∆) | protein stability index (ubr1∆)
RLQAKRLKDVEWVKLHR [RMP1] | 2.97 ± 0.069 | 3.09 ± 0.076 | 3.15 ± 0.056 | 2.03 ± 0.062
VPIKSSKSGRIFALVFS [RPN13] | 2.57 ± 0.14 | 2.41 ± 0.091 | 2.41 ± 0.096 | 2.63 ± 0.1
GPGGQAALRALARSGLR [RPS14B] | 2.41 ± 0.081 | 2.59 ± 0.11 | 2.22 ± 0.11 | 2.48 ± 0.085
